System: MS2 coat protein
Assay: apparent KD of MS2 coat protein; designed switch direction (-1 OFF switch, 1 ON switch): 1; higher = weaker reporter binding
Outline: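 Designed RNA switches with common flanks were made on Illumina chips by stalled E. coli RNA polymerase. Titration with SNAP-549-labelled MS2 coat protein doubled from 0.7 or 1.5 nM up to 3 µM. Apparent KD is each design's median over clusters after curve-fitting normalised fluorescence.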

[1] = input ligand: microRNA oligo, concentration not stated
[2] = Eterna round: R95, input ligand: FMN 200 uM
[3] = Eterna round: R95, input ligand: microRNA oligo, concentration not stated
[4] = Eterna round: R95, input ligand: none

| Sequence | apparent KD of MS2 coat protein (input ligand: FMN 200 uM) | apparent KD of MS2 coat protein [1] | apparent KD of MS2 coat protein (input ligand: none) | apparent KD of MS2 coat protein [2] | apparent KD of MS2 coat protein [3] | apparent KD of MS2 coat protein [4] |
| --- | --- | --- | --- | --- | --- | --- |
| AUUUUUAAUGCAGGAUAUGAUUAACAUGAGGAUCACCCAUGUGGUGUUGUGAGUAAGGAGAGUGAUCAGAAGGGCAUUUUUAUU [JMF's solution 84] (Eterna round: R96, puzzle: Same State NG 2) | 1180 nM | 450 nM | 615 nM | – | – | – |
| AAUAAGUUCAGCUCGUCUUGCGCCGACUGACAUGAGGAUCACCCAUGUGGAUUCCAAGGAAUCCAUUGGCGUGUUUC [Ororer] (puzzle: Sensor for hsa-mir-208a) | – | – | – | 34.8 nM | 54.3 nM | 24.8 nM |
| AACAGACAUGAGGAUCACCCAUGUAGAAUUAUGGGAGGAUAUACAAAGACGAGAGUCAGAGUAGAAGGCCUAGGAC [salish99-ss1-163] (Eterna round: R96, puzzle: Same State 1) | 24.3 nM | 42.2 nM | 51.7 nM | – | – | – |
| AGAUCAUGACGAGGAUAUCCGACAUGAGGAUCACCCAUGUAUGUCGGAGGACGCGUACGUCCAAUGGAGAAGGCGUCGUGGUCA [JL SSNG2 1.03] (Eterna round: R96, puzzle: Same State NG 2) | 18.2 nM | 73.7 nM | 82.5 nM | – | – | – |
| UAUGAACAUGAGGAUCACCCAUGUGGAAAAGACACAGGAUAUCAUCCCGGACGUGCGAGAUGAGAAGGGUGAUGGU [Edrive] (puzzle: Same State 1) | – | – | – | 267 nM | 205 nM | 367 nM |
| AAGAAGACGAACAAGGAUAUGUCAAAGGAAACAUGAGGAUCACCCAUGUAGAGAUUGGAAAAGAAACAGAAGGUGUACAGAAAGA [JR_SS2_Sub005] (puzzle: Same State 2) | – | – | – | 24.8 nM | 33.3 nM | 35.1 nM |
| CGAGCCGGCACUGAGGAUAUUCAUAUUUAAACAUGAGGAUCACCCAUGUAGGCCAGAAGGCCUUGGGAGAAGGCAGGUCGGCUCC [salish99_ss2_r3_080] (puzzle: Same State 2) | – | – | – | 22.6 nM | 279 nM | 480 nM |
| UAAAUACAUGAGGAUCACCCAUGUCAAAAGACAUGAGGAUAUGUACAGACUUCGGUCUGUACAGAAGGCAUGAAAA [salish99_ss1_r3_095] (puzzle: Same State 1) | – | – | – | 43.6 nM | 708 nM | 890 nM |
| GUGGUCAGACAUGAGGAUCACCCAUGUGGAAUAAAUAAGGGAGAGGAUAUAAAAUAUAGGAUAUAUUAGAAGGCUCGGUUGGUG (Eterna round: R96, puzzle: Same State NG 3) | 95.7 nM | 82.7 nM | 85.4 nM | – | – | – |
| GCUCGAUGAGCUGUCUACAUGAGGAUCACCCAUGUAGAUGCGGAGGAUAUUUACGUGCUUUAUGUAGAGAAGGCCGUAUCGAGC [SameState NG3 #79] (Eterna round: R96, puzzle: Same State NG 3) | 12 nM | 15.6 nM | 17.9 nM | – | – | – |
| AAAGUACAUGAGGAUCACCCAUGUCCAAAAAAGUAAGGAUAUGUGGUGCGACUACGAAACACAGAAGGUACAAAAA [Malcolm Mod] (puzzle: Same State 1) | – | – | – | 30.1 nM | 13.3 nM | 81.2 nM |
| CCAACGUACAAUUUAGAUCUACAUGAGGAUCACCCAUGUACGGAGGAUAUCAGCUCGUUUAGAGCUGAGAAGGCCGAAUUAAUU [SSNG3/2-A3] (Eterna round: R96, puzzle: Same State NG 3) | – | 238 nM | – | – | – | – |
| CCAACGUACAAUUUAGAUCUACAUGAGGAUCACCCAUGUACGGAGGAUAUCAGCUCGUGUAGAGCUGAGAAGGCCGAAUUAAUU [SSNG3/2-A4] (Eterna round: R96, puzzle: Same State NG 3) | 88 nM | 298 nM | 465 nM | – | – | – |
| CUGAGCAGUCAAGGAUAUCACGUCGAUUAGACGUGAGAAGGUGAUUAAUACAUGAGGAUCACCCAUGUAAUACAUGAAGCUCAG [SSNG1/11-A2] (Eterna round: R96, puzzle: Same State NG 1) | 13.8 nM | 38.4 nM | 41.9 nM | – | – | – |
| UGGCUCAGACGAGGAUAUAUGUCUCGAGCUUCGGCUCGAGACAUGAGGAUCACCCAUGUAAUAACAUAGAAGGUGUCUGAGCCA [SSNG2/1-C2] (Eterna round: R96, puzzle: Same State NG 2) | 50.6 nM | 240 nM | 263 nM | – | – | – |
| AAGAAAGACGCAGGAUAUCAGCGCAAAACACGCUGAGAAGGGUGAGACAUGAGGAUCACCCAUGUAACACGGCAAAACGCCGUG [Atinanor] (Eterna round: R96, puzzle: Same State NG 1) | 2190 nM | 122 nM | 1310 nM | – | – | – |

| Sequence | apparent KD of MS2 coat protein (input ligand: FMN 200 uM) | apparent KD of MS2 coat protein [1] | apparent KD of MS2 coat protein (input ligand: none) | apparent KD of MS2 coat protein [2] | apparent KD of MS2 coat protein [3] | apparent KD of MS2 coat protein [4] |
| --- | --- | --- | --- | --- | --- | --- |
| GGUAAGAAUUAAGGAUAUCGAGUACAUAUGUUUAACAUGAGGAUCACCCAUGUGGGUUGCGGUAUCGAGAAGGUAAAUUACAAG [Mat - same State NG 2 - JL mod - D62] (Eterna round: R96, puzzle: Same State NG 2) | 40.7 nM | 35.7 nM | 41.8 nM | – | – | – |
| UGAAUGGUGAUAGGAUAUACAUGAGGAAUCCUCGUAGAAGGAUCACGACAUGAGGAUCACCCAUGUAGCCGUCCGUAGACGGCC [salish99_SSNG1_r04_002] (Eterna round: R96, puzzle: Same State NG 1) | – | 89.6 nM | – | – | – | – |
| UGUUGUAUUACAGGAUAUCUAUUGUUAUUAUUUAGAGAAGGGUAUUCACAUGAGGAUCACCCAUGUAUAUACGAGGAAGUUGUG [JMF's solution 74] (Eterna round: R96, puzzle: Same State NG 1) | – | 33 nM | – | – | – | – |
| AGGCUCAGACGAGGAUAUACGUGGUCACAUGAGGAUCACCCAUGUCUCGAGCUUCGGCUCGAGGCGUAGAAGGUGUCUGAGCCA [SSNG2/6-C1] (Eterna round: R96, puzzle: Same State NG 2) | 195 nM | 406 nM | 609 nM | – | – | – |
| AAUUAUUAACAUGAGGAUCACCCAUGUAUAAGGGAGAAUAUUAUUAUUAUUAUUAACAAGCUUUUUGCUUGUCUCAU [Ribo-boogie] (puzzle: Sensor for hsa-mir-208a version 2) | – | – | – | 48.6 nM | 67.9 nM | 68.4 nM |
| UUCCUUCUCGUAGGAUAUGUAGGAUAUUCCUACAUGAGGAUCACCCAUGUUCGCAUGGAAGAAGGACAGAAGGACGAUCACCCU [pwkr ssNG2 2FMN + 1F5.11] (Eterna round: R96, puzzle: Same State NG 2) | 91.3 nM | 74.3 nM | 98.5 nM | – | – | – |
| GCUCGGAUGAUGGCCCACAUGAGGAUCACCCAUGUGCGUGGGCAGGAUAUCUAGAUUAAGGAUGUAGAGAAGGGCCUACCGAGC [SameState NG3 #33] (Eterna round: R96, puzzle: Same State NG 3) | 543 nM | 140 nM | 179 nM | – | – | – |
| GUGGUCAGACAUGAGGAUCACCCAUGUGGAAUAAAUAACGGACAGGAUAUUCAAUAUAGGAUAUAGAAGAAGGGUUGAUUGGUG (Eterna round: R96, puzzle: Same State NG 3) | 143 nM | 84.5 nM | 90.9 nM | – | – | – |
| AGGUGGUGUGGAAAGGAUAUACGGUUGAGGACAUGAGGAUCACCCAUGUGGUAGAGGACGUAAGGGUAGAAGGUUCGGGAUUGGU [JR_SS@_Sub022] (puzzle: Same State 2) | – | – | – | 41.2 nM | 36.5 nM | 41.7 nM |
| AUUAAACAUGAGGAUCACCCAUGUCAACAAAGUCGAGGAUAUGGGCAAAUAAAAUAAGAACCAGAAGGCGAAUAAU [salish99_ss1_r3_048] (Eterna round: R96, puzzle: Same State 1) | – | 193 nM | – | – | – | – |
| GUAAGUUUGAUGCUCGUCUCUCCGUACAAACAUGAGGAUCACCCAUGUGGUCGGGAAGUAGCCCGGCCAGUAUGGCC [Rerire] (puzzle: Sensor for hsa-mir-208a) | – | – | – | 24.8 nM | 21.4 nM | 26.8 nM |
| UAGGAACAUGAGGAUCACCCAUGUACCUCAUAUGGAGAAACACAGGAUAUACUUAGCGAAAGAGAGUAGAAGGGUGAAGAGAGG [Default title] (Eterna round: R96, puzzle: Same State NG 3) | 19.4 nM | 30.8 nM | 32.6 nM | – | – | – |
| UAAUUAAAGCAAGGAUAUCACGUCGAAUAGACGUGAGAAGGUGCUCCUUACAUGAGGAUCACCCAUGUAUAACAUGAAUAAUUA [SSNG1/10-B1] (Eterna round: R96, puzzle: Same State NG 1) | 166 nM | 702 nM | 741 nM | – | – | – |
| GUAGAUAUAACGCAGGAUAUUCAAUGAGAGACAUGAGGAUCACCCAUGUGAGAGUGAGAUGAUAGGAAGAAGGGUGAGAGAGAUG [Altered State 2-8 - Jieux - Same State 2] (puzzle: Same State 2) | – | – | – | 107 nM | 124 nM | 122 nM |
| UUAUUAUUUACAUGAGGAUCACCCAUGUUUUUAUGUCAGAGACAGGAUAUAGUAGUCUCGUUUUACUAGAAGGGUCUUUUUAUU [JR_SSNG3_Sub017] (Eterna round: R96, puzzle: Same State NG 3) | 15.2 nM | 18.9 nM | 22.1 nM | – | – | – |
| AUUAUUAAUGCAGGAUAUGAUUAACAUGAGGAUCACCCAUGUGGUGUUGUGAGUAAGGAGAGUGAUCAGAAGGGCAUAUUUUUU [JMF's solution 9] (Eterna round: R96, puzzle: Same State NG 2) | 668 nM | 407 nM | 625 nM | – | – | – |

— the supplement of paper PMC9170038
